Measurements reported in patent publication EP4803151A2 (Lepu Biopharma Co., Ltd., dated 2026).
Substitutions are numbered along the chain they refer to. Blank lines part the entries; values can stand above or below the binder they belong to.

What was measured:
[1] = molecular target: T1, human DLL3 endogenously expressed on SCLC tumor cell lines SHP77 and NCI-H82 (human, UniProt Q9NYJ7 27-618); assay: flow cytometry on SHP77 cells
T1 construct: whole, on cells; also called human DLL3 expressed on tumor cells
T1 sequence (looked up): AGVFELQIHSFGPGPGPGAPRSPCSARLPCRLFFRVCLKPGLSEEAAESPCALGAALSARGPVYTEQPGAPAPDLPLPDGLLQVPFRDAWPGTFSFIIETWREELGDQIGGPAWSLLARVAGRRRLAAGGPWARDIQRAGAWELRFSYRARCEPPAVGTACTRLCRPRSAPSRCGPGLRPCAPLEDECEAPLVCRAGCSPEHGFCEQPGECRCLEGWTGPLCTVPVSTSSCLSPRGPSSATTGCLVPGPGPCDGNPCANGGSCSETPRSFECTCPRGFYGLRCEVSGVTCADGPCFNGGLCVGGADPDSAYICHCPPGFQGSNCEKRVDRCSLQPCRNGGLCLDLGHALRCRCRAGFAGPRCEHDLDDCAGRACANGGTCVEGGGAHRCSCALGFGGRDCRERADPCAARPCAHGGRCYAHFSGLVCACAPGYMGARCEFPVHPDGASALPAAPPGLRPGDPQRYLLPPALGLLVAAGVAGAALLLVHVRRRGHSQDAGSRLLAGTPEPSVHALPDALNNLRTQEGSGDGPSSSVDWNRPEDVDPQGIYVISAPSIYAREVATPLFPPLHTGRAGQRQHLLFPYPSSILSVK

[2] = molecular target: T2, ECD of human DLL3 over-expressed on HEK293 cells (human, UniProt Q9NYJ7 27-492); assay: flow cytometry on HEK293-hDLL3 cells
T2 construct: extracellular domain; also called HEK293-hDLL3; human DLL3 expressed on HEK293 cells
T2 sequence (looked up): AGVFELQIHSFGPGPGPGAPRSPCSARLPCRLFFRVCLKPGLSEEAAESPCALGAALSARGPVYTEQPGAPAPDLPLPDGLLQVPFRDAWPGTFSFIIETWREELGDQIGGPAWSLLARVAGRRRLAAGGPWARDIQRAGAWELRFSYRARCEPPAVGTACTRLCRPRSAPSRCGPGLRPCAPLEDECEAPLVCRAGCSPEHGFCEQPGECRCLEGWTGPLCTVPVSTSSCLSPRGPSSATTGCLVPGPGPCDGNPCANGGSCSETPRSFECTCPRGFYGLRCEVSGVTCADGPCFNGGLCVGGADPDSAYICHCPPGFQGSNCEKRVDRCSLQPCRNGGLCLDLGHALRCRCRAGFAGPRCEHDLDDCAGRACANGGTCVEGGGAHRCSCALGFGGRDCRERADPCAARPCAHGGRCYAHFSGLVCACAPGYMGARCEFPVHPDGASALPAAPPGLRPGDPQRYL

[3] = molecular target: T3, ECD of human DLL3 protein fused with his tag (Acro Bio, Cat. No. DL3-H52H4) (human, UniProt Q9NYJ7 27-492); assay: ELISA, hDLL3-his coated
T3 construct: range 27-492; Bought protein; also called hDLL3-his; human DLL3-his protein; not shown: his tag
T3 sequence (looked up): T2 sequence (looked up)

[4] = molecular target: T4, human full length DLL1 expressed on CHO-K1 cells (human, UniProt O00548 18-723); assay: flow cytometry on CHO-K1-hDLL1 cells
T4 construct: whole, on cells; also called CHO-K1-hDLL1
T4 sequence (looked up): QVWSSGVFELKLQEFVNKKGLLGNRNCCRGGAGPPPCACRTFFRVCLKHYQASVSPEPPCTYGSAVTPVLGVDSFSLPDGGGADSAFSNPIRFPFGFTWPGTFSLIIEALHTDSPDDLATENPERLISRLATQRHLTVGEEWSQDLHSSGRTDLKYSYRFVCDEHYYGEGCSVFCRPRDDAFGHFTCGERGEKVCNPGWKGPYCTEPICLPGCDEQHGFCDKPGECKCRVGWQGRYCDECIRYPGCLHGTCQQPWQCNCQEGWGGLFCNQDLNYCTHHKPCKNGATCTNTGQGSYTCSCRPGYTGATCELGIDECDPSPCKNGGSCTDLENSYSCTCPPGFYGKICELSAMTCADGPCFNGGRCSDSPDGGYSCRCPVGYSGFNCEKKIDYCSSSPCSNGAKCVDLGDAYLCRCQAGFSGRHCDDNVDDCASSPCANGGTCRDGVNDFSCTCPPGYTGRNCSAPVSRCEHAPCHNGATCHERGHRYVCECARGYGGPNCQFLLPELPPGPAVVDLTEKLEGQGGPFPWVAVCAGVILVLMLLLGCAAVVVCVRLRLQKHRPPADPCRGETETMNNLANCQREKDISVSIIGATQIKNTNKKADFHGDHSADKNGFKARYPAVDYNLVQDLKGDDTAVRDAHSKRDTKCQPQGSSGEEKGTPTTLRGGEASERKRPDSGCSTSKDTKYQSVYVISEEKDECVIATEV

[5] = molecular target: T5, human full length DLL4 expressed on CHO-K1 cells (human, UniProt Q9NR61 27-685); assay: flow cytometry on CHO-K1-hDLL4 cells
T5 construct: whole, on cells; also called CHO-K1-hDLL4
T5 sequence (Q9NR61 27-685): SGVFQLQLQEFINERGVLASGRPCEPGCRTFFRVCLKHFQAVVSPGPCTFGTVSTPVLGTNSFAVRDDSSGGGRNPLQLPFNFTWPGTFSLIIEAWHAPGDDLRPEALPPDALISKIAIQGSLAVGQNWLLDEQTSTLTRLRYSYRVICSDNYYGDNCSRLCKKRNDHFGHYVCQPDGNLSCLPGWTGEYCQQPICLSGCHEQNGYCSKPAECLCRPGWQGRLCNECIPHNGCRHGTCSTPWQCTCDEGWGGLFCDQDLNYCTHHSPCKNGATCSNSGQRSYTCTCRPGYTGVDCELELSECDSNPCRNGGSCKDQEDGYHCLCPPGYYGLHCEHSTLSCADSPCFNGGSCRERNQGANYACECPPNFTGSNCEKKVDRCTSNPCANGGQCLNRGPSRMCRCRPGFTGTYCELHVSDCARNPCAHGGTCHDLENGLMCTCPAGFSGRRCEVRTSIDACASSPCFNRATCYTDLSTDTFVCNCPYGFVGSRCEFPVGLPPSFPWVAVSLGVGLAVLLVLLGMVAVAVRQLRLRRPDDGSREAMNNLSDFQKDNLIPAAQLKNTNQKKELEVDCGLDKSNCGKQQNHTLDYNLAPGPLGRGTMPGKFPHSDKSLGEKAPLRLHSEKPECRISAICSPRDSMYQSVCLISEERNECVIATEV

[6] = molecular target: T1, human DLL3 endogenously expressed on …; assay: flow cytometry on SHP77 and NCI-H82 cells

B1: 310P3C5-z15p10 PTM removed humanized antibody (antibody, V domains shown)
VH: QVQLVQSGAEVKKPGASVKVSCKASGYTFTDFYMNWVKQAPGQGLEWIGDANPNAGGTTHNPRFKGRATLTVDKSASTAYMELRSLRSEDTAVYYCARGGLPGDFDYWGQGTTVTVSS
VL: DIQMTQSPSSLSASVGDRVTITCKASEDIYNRLAWYQQKPGKAPKLLISGVTSLETGVPSRFSGSGSGTDFTFTISSLQPEDIATYYCQQYWSFPWTFGGGTKVEIK
notes: variable regions fused to the constant region of human IgG1
- binding result [1]: binds
- binding result [2]: binds

B2: 310P3C5-z7 humanized antibody (antibody, human IgG1, kappa, V domains shown)
VH: B1 VH with K38R, A55N, K74T, A76T, E89D
VL: DIQMTQSPSSVSASVGDRVTITCKASEDIYNRLAWYQQKPGKAPKLLISGVTSLETGVPSRFSGSGSGTDFTLTISSLQPEDFATYYCQQYWSFPWTFGGGTKVEIKR
notes: HU-VH1-3 with HU-VL1-2; human IgG1
- binding result [3]: binds

B3: 310P3C5-z8 humanized antibody (antibody, human IgG1, kappa, V domains shown)
VH: B1 VH with K38R, A55N, R67Q, A76T, E89D
VL: B2 VL
notes: HU-VH1-4 with HU-VL1-2; human IgG1
- binding result [3]: binds
- binding result [4]: no binding
- binding result [5]: no binding
- binding result [2]: binds
- binding result [6]: binds

B4: 310P3C5-z12 humanized antibody (antibody, human IgG1, kappa, V domains shown)
VH: B1 VH with K38R, A55N, R67Q, A76T, E89D
VL: B2 VL with T69K
notes: HU-VH1-4 with HU-VL1-3; human IgG1
- binding result [3]: binds
- binding result [4]: no binding
- binding result [5]: no binding
- binding result [2]: binds
- binding result [6]: binds

B5: 310P3C5-z15p19 PTM removed humanized antibody (antibody, V domains shown)
VH: B1 VH with A55V
VL: B1 VL
notes: as for B1
- binding result [1]: binds
- binding result [2]: binds

B6: 310P3C5-z4 humanized antibody (antibody, human IgG1, kappa, V domains shown)
VH: B1 VH with K38R, A55N, R67Q, A76T, E89D
VL: B2 VL with S49Y
notes: HU-VH1-4 with HU-VL1-1; human IgG1
- binding result [3]: binds
- binding result [4]: no binding
- binding result [5]: no binding
- binding result [2]: binds
- binding result [6]: binds

B7: 310P3C5-z15p12 PTM removed humanized antibody (antibody, V domains shown)
VH: B1 VH with A55F
VL: B1 VL
notes: as for B1
- binding result [1]: binds
- binding result [2]: binds

B8: 310P3C5-z15p20 PTM removed humanized antibody (antibody, V domains shown)
VH: B1 VH with A55W
VL: B1 VL
notes: as for B1
- binding result [1]: binds
- binding result [2]: binds

B9: 310P3C5-z9 humanized antibody (antibody, human IgG1, kappa, V domains shown)
VH: B1 VH with K38R, I48M, A55N, A68V, L70M, V72T, K74T, A76T, E89D
VL: B2 VL with T69K
notes: HU-VH1-1 with HU-VL1-3; human IgG1
- binding result [3]: binds

B10: 310P3C5-z5 humanized antibody (antibody, human IgG1, kappa, V domains shown)
VH: B1 VH with K38R, I48M, A55N, A68V, L70M, V72T, K74T, A76T, E89D
VL: B2 VL
notes: HU-VH1-1 with HU-VL1-2; human IgG1
- binding result [3]: binds

B11: 310P3C5-z15p18 PTM removed humanized antibody (antibody, V domains shown)
VH: B1 VH with A55R
VL: B1 VL
notes: as for B1
- binding result [1]: binds
- binding result [2]: binds

B12: 310P3C5-z13 humanized antibody (antibody, human IgG1, kappa, V domains shown)
VH: B1 VH with K38R, I48M, A55N, A68V, L70M, V72T, K74T, A76T, E89D
VL: B2 VL with V11L, L73F, F83I
notes: HU-VH1-1 with HU-VL2; human IgG1
- binding result [3]: binds

B13: 310P3C5-z6 humanized antibody (antibody, human IgG1, kappa, V domains shown)
VH: B1 VH with K38R, A55N, L70M, V72T, K74T, A76T, E89D
VL: B2 VL
notes: HU-VH1-2 with HU-VL1-2; human IgG1
- binding result [3]: binds

Next, values leading:

- binding result [3]: binds
- binding result [4]: no binding
- binding result [5]: no binding
- binding result [2]: binds
- binding result [6]: binds
B14: 310P3C5-z14 humanized antibody (antibody, human IgG1, kappa, V domains shown)
VH: B1 VH with A55N
VL: B2 VL with S49Y
notes: HU-VH2 with HU-VL1-1; human IgG1

- binding result [3]: binds
B15: 310P3C5-z1 humanized antibody (antibody, human IgG1, kappa, V domains shown)
VH: B1 VH with K38R, I48M, A55N, A68V, L70M, V72T, K74T, A76T, E89D
VL: B2 VL with S49Y
notes: HU-VH1-1 with HU-VL1-1; human IgG1

- binding result [3]: binds
B16: 310P3C5-z3 humanized antibody (antibody, human IgG1, kappa, V domains shown)
VH: B1 VH with K38R, A55N, K74T, A76T, E89D
VL: B2 VL with S49Y
notes: HU-VH1-3 with HU-VL1-1; human IgG1

- binding result [3]: binds
B17: 310P3C5-z11 humanized antibody (antibody, human IgG1, kappa, V domains shown)
VH: B1 VH with K38R, A55N, K74T, A76T, E89D
VL: B2 VL with T69K
notes: HU-VH1-3 with HU-VL1-3; human IgG1

- binding result [1]: binds
- binding result [2]: binds
B18: 310P3C5-z15p21 PTM removed humanized antibody (antibody, V domains shown)
VH: B1 VH with A55Y
VL: B1 VL
notes: as for B1

- binding result [3]: binds
B19: 310P3C5-z10 humanized antibody (antibody, human IgG1, kappa, V domains shown)
VH: B1 VH with K38R, A55N, L70M, V72T, K74T, A76T, E89D
VL: B2 VL with T69K
notes: HU-VH1-2 with HU-VL1-3; human IgG1

- binding result [1]: binds
- binding result [2]: binds
B20: 310P3C5-z15p13 PTM removed humanized antibody (antibody, V domains shown)
VH: B1 VH with A55H
VL: B1 VL
notes: as for B1

- binding result [3]: binds
- binding result [4]: no binding
- binding result [5]: no binding
- binding result [2]: binds
- binding result [6]: binds
B21: 310P3C5-z15 humanized antibody (antibody, human IgG1, kappa, V domains shown)
VH: B1 VH with A55N
VL: B2 VL with V11L, L73F, F83I
notes: human IgG1

- binding result [3]: binds
B22: 310P3C5-z2 humanized antibody (antibody, human IgG1, kappa, V domains shown)
VH: B1 VH with K38R, A55N, L70M, V72T, K74T, A76T, E89D
VL: B2 VL with S49Y
notes: HU-VH1-2 with HU-VL1-1; human IgG1
